Where two headings read alike, the source gives them in different places. Where no end group is shown, it is not given here.
Legend:
human plasmin [1] = target: T1, human plasmin (human, UniProt P00747 97-810); assay: enzyme inhibition kinetics, plasmin 50 pM
T1 construct: Active enzyme

[2] = target: T2, bovine trypsin (type III) (bovine, UniProt P00760 24-246); assay: enzyme inhibition kinetics, trypsin 48.5 pM
T2 construct: Active enzyme, active-site titrated

[3] = target: T2, bovine trypsin (type III); assay: enzyme inhibition kinetics, trypsin 48.5 pM; remark: listed apart in the source
human plasmin [4] = target: T1, human plasmin; assay: enzyme inhibition kinetics, plasmin 50 pM; remark: listed apart in the source
human factor Xa = human factor Xa (human, UniProt P00742 41-488, limits assumed); assay: enzyme inhibition kinetics, factor Xa 0.87 nM
Tissue Factor VIIa = target: T3, Tissue Factor VIIa; assay: enzyme inhibition
T3 construct: Complex of tissue factor and factor VIIa; no method is described for it; also called tissue factor VIIa complex

[5] = target: T4, bovine pancreatic kallikrein (bovine); assay: enzyme inhibition kinetics, kallikrein 100 pM
T4 construct: also called immobilized bovine pancreatic kallikrein; kallikrein-sepharose

human tissue kallikrein = human tissue kallikrein (human, UniProt P06870 25-262); assay: enzyme inhibition kinetics, tissue kallikrein 0.35 nM, PFR-AMC substrate
Sequence of human tissue kallikrein (P06870 25-262 limits assumed): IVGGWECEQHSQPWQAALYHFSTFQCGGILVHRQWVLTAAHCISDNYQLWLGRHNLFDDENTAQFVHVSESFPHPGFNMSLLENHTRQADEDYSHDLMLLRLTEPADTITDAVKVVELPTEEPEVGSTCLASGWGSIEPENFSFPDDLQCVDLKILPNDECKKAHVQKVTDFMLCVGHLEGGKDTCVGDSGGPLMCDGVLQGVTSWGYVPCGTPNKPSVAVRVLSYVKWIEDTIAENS

human plasma kallikrein = target: T5, human plasma kallikrein (human, UniProt P03952 20-638); assay: enzyme inhibition kinetics, kallikrein 2.5 nM
T5 construct: Active enzyme
T5 sequence (P03952 20-638 limits assumed): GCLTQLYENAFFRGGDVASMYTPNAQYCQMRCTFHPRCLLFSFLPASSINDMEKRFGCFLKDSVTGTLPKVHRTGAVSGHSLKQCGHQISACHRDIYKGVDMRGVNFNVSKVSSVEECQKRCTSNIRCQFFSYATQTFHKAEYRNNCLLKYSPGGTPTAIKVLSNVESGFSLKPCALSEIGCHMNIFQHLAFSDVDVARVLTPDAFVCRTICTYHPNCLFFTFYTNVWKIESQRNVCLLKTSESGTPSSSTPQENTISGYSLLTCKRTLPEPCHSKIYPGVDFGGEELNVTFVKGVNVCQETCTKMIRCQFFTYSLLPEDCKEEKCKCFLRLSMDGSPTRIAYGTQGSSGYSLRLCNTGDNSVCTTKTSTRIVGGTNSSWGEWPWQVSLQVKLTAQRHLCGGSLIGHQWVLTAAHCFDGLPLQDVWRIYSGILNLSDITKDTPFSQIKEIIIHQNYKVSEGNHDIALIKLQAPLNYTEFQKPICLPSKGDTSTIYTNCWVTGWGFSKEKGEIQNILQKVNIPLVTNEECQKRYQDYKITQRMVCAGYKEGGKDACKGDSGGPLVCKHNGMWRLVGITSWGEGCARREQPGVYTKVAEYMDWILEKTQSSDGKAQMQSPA

Factor XIa = target: T6, Factor XIa (Homo sapiens (Human), UniProt P03951 19-387; P03951 388-625, Activated enzyme cleaved after Arg387 of the precursor. The native molecule is a disulfide-linked homodimer of heavy-plu [CUT]); assay: enzyme inhibition kinetics, factor XIa 0.1 nM
T6 construct: also called FXIa
T6 sequence (P03951 19-387 limits assumed, form in doubt, chain 1 of 2): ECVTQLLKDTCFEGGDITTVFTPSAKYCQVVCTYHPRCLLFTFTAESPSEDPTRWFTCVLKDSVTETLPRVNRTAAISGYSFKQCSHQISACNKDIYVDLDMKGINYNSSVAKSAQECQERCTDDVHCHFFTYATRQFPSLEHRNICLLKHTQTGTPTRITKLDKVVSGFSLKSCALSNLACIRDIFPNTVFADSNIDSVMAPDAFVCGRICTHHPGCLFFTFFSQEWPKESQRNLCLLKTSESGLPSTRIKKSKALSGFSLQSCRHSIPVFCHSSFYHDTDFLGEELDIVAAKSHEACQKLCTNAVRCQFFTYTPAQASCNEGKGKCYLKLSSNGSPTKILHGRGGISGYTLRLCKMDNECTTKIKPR
T6 sequence (P03951 388-625 limits assumed, form in doubt, chain 2 of 2): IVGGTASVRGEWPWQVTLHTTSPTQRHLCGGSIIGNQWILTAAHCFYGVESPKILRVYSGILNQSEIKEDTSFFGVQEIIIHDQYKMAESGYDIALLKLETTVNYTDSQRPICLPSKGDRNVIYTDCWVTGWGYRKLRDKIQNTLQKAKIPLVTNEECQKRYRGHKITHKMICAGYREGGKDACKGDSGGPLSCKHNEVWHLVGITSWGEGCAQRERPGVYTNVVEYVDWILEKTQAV

[6] = target: T7, tissue plasminogen activator (single chain form from human melanoma cell culture) (human, UniProt P00750 36-562, limits assumed); assay: enzyme inhibition, tPA 7.5 nM, chromogenic pNA substrate
T7 construct: also called tPA
T7 sequence (P00750 36-562 limits assumed): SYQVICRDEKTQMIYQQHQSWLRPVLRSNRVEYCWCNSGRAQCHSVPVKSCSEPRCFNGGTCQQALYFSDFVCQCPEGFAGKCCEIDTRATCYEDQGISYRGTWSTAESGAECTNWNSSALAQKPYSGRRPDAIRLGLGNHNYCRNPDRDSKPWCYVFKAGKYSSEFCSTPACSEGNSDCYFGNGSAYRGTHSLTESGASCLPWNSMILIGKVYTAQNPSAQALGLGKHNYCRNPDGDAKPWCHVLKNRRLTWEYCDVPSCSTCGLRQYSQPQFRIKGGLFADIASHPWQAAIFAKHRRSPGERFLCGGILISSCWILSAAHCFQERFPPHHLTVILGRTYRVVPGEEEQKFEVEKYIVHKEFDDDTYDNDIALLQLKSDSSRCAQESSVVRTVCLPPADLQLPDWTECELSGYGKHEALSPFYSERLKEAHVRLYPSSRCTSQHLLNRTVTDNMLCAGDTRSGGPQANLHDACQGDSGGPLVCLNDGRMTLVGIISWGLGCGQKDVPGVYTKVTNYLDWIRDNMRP

Bovine chymotrypsin = Bovine chymotrypsin (bovine, UniProt P00766 1-245); assay: enzyme inhibition kinetics, chymotrypsin 5 nM
[7] = target: T4, bovine pancreatic kallikrein; assay: enzyme inhibition kinetics, kallikrein 92.0 pM

T2 sequence (P00760 24-246): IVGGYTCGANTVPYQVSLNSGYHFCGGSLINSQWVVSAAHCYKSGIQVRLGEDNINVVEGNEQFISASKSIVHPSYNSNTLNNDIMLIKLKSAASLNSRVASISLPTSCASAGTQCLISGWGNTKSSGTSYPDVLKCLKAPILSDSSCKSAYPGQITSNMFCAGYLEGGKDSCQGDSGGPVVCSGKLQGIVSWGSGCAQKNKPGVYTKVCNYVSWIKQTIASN
T1 sequence (P00747 97-810 limits assumed): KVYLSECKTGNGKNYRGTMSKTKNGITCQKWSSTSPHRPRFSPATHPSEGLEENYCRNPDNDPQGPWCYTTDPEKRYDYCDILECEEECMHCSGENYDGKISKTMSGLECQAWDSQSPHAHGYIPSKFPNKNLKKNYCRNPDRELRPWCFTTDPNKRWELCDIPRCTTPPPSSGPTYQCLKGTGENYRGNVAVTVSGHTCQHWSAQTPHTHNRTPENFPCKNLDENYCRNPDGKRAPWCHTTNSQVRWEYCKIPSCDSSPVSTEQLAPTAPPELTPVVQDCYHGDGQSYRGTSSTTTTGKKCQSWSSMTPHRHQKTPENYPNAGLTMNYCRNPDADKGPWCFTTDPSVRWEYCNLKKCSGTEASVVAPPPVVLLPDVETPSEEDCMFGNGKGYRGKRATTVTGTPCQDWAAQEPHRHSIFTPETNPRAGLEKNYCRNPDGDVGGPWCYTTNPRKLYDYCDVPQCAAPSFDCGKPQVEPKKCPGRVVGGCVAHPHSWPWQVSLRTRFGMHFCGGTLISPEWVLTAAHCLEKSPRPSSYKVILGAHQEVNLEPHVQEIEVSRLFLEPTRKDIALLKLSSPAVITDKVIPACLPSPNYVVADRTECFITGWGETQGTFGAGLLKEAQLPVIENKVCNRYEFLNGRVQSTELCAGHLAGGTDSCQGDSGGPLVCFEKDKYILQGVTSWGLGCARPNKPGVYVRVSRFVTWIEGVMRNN

B1: native human placental bikunin isolated from human placenta (other)
chain: ADRERSIHDFCLVSKVVGRCRASMPRWWYNVTDGSCQLFVYGGCDGNSNNYLTKEECLKKCATVTENATGDLATSRNAADSSVPSAPRRQDSEDHSSDMFNYEEYCTANAVTGPCRASFPRWYFDVERNSCNNFIYGGCRGNKNSYRSEEACMLRCFRQQENPPLPLGSKVVVLAGAVS
modifications: asparagine 30 silent in sequencing, likely glycosylated
notes: Soluble protein purified from placenta; A minor species starts at residue 6; also called native Placental Bikunin (1-179)
B1 gave a Ki (human plasmin [1]) of 1.9 nM and a Ki [2] of 0.13 nM.

B2: recombinant placental bikunin (1-170) from baculovirus / Sf9 cells (other)
chain: ADRERSIHDFCLVSKVVGRCRASMPRWWYNVTDGSCQLFVYGGCDGNSNNYLTKEECLKKCATVTENATGDLATSRNAADSSVPSAPRRQDSEDHSSDMFNYEEYCTANAVTGPCRASFPRWYFDVERNSCNNFIYGGCRGNKNSYRSEEACMLRCFRQQENPPLPLGSK
modifications: asparagine 30 silent in sequencing, consistent with glycosylation
notes: signal peptide correctly removed (N-terminus ADRER); also called Recombinant Bikunin; Sf9-derived human placental bikunin (1-170)
B2 gave a Ki [3] of 0.064 nM, a Ki (human plasmin [4]) of 0.23 nM and a Ki (human factor Xa) of 180 nM. It also gave a Ki (Tissue Factor VIIa) of 800 nM, a Ki [5] of 0.12 nM and a Ki (human tissue kallikrein) of 0.04 nM. For the same binder, the Ki (human plasma kallikrein) was 0.18 nM, the Ki (Factor XIa) was 3 nM and the Ki [6] was under 60 nM.

B3: synthetic placental bikunin (7-64), first preparation (other)
chain: IHDFCLVSKVVGRCRASMPRWWYNVTDGSCQLFVYGGCDGNSNNYLTKEECLKKCATV
modifications: ends and bridges not checked; also: may be incompletely deprotected before refolding
notes: also called placental bikunin fragment (7-64); KID1
B3 showed a Ki (Bovine chymotrypsin) of 0.6 nM and a Ki [7] of 0.4 nM.

Reference: patent publication EP1752538A1 (BAYER CORPORATION, dated 1997)
